Legend:
Assay type in all cases: biochemical, E. coli
[1] = substrate: CCCCC(O)(CC(=O)O)C(=O)O; experiment: Kinetic analysis of LeuCD (LeuB-coupled HTP assay), Variant 6; details: other: 2-BM 0-5 mM, pH 8, room temperature, 30 min
[2] = substrate: CCCCCCC(O)(CC(=O)O)C(=O)O; experiment: as above; details: other: 2-HM 0-1.6 mM, pH 8, room temperature, 30 min
[3] = substrate: CCCCC(O)(CC(=O)O)C(=O)O; experiment: Kinetic analysis of LeuCD (LeuB-coupled HTP assay), Variant 9; details: other: 2-BM 0-5 mM, pH 8, room temperature, 30 min
[4] = substrate: CCCCCCC(O)(CC(=O)O)C(=O)O; experiment: as above; details: other: 2-HM 0-1.6 mM, pH 8, room temperature, 30 min
[5] = substrate: CCCCC(O)(CC(=O)O)C(=O)O; experiment: Kinetic analysis of LeuCD (LeuB-coupled HTP assay), Variant 59; details: other: 2-BM 0-5 mM, pH 8, room temperature, 30 min
[6] = substrate: CCCCCCC(O)(CC(=O)O)C(=O)O; experiment: as above; details: other: 2-HM 0-1.6 mM, pH 8, room temperature, 30 min
[7] = substrate: CCCCC(O)(CC(=O)O)C(=O)O; experiment: Kinetic analysis of LeuCD (LeuB-coupled HTP assay), Variant 61; details: other: 2-BM 0-5 mM, pH 8, room temperature, 30 min
[8] = substrate: CCCCCCC(O)(CC(=O)O)C(=O)O; experiment: as above; details: other: 2-HM 0-1.6 mM, pH 8, room temperature, 30 min
[9] = substrate: CCCCC(O)(CC(=O)O)C(=O)O; experiment: Kinetic analysis of LeuCD (LeuB-coupled HTP assay), Variant 1; details: other: 2-BM 0-5 mM, pH 8, room temperature, 30 min
[10] = substrate: CCCCCCC(O)(CC(=O)O)C(=O)O; experiment: as above; details: other: 2-HM 0-1.6 mM, pH 8, room temperature, 30 min
[11] = substrate: CCCCC(O)(CC(=O)O)C(=O)O; experiment: Kinetic analysis of LeuCD (LeuB-coupled HTP assay), Variant 5; details: other: 2-BM 0-5 mM, pH 8, room temperature, 30 min
[12] = substrate: CCCCCCC(O)(CC(=O)O)C(=O)O; experiment: as above; details: other: 2-HM 0-1.6 mM, pH 8, room temperature, 30 min

B1: E. coli isopropylmalate isomerase LeuCD complex, Variant 6 (wt LeuC + L31G-LeuD; parents SEQ ID NO: 1 and SEQ ID NO: 2) (Escherichia coli K-12; L31G) (protein)
chain 1: MGSSHHHHHHSSGMAKTLYEKLFDAHVVYEAENETPLLYIDRHLVHEVTSPQAFDGLRAHGRPVRQPGKTFATMDHNVSTQTKDINACGEMARIQMQELIKNCKEFGVELYDLNHPYQGIVHVMGPEQGVTLPGMTIVCGDSHTATHGAFGALAFGIGTSEVEHVLATQTLKQGRAKTMKIEVQGKAAPGITAKDIVLAIIGKTGSAGGTGHVVEFCGEAIRDLSMEGRMTLCNMAIEMGAKAGLVAPDETTFNYVKGRLHAPKGKDFDDAVAYWKTLQTDEGATFDTVVTLQAEEISPQVTWGTNPGQVISVNDNIPDPASFADPVERASAEKALAYMGLKPGIPLTEVAIDKVFIGSCTNSRIEDLRAAAEIAKGRKVAPGVQALVVPGSGPVKAQAEAEGLDKIFIEAGFEWRLPGCSMCLAMNNDRLNPGERCASTSNRNFEGRQGRGGRTHLVSPAMAAAAAVTGHFADIRNIK
chain 2: MAEKFIKHTGLVVPLDAANVDTDAIIPKQFGQKVTRTGFGAHLFNDWRFLDEKGQQPNPDFVLNFPQYQGASILLARENFGCGSSREHAPWALTDYGFKVVIAPSFADIFYGNSFNNQLLPVKLSDAEVDELFALVKANPGIHFDVDLEAQEVKAGEKTYRFTIDAFRRHCMMNGLDSIGLTLQHDDAIAAYEAKQPAFMN
notes: expression of a His-tagged LeuC having 13 additional amino acids on the N-terminus; made in house; host or cells: E. coli BL21(DE3), whole cell lysate
- Km [1]: 8440 ± 2400 µM
- kcat [1]: 0.132 ± 0.0333 s⁻¹
- kcat/Km [1]: 17.2 ± 6.67 M⁻¹ s⁻¹
- Km [2]: 650 ± 40 µM
- kcat [2]: 0.3436 ± 0.00944 s⁻¹
- kcat/Km [2]: 532.5 ± 35.8 M⁻¹ s⁻¹

B2: E. coli isopropylmalate isomerase LeuCD complex, Variant 9 (V35A-LeuC + L31G-LeuD; parents SEQ ID NO: 1 and SEQ ID NO: 2) (Escherichia coli K-12; L31G/V35A) (protein)
chain 1: MGSSHHHHHHSSGMAKTLYEKLFDAHVVYEAENETPLLYIDRHLVHEATSPQAFDGLRAHGRPVRQPGKTFATMDHNVSTQTKDINACGEMARIQMQELIKNCKEFGVELYDLNHPYQGIVHVMGPEQGVTLPGMTIVCGDSHTATHGAFGALAFGIGTSEVEHVLATQTLKQGRAKTMKIEVQGKAAPGITAKDIVLAIIGKTGSAGGTGHVVEFCGEAIRDLSMEGRMTLCNMAIEMGAKAGLVAPDETTFNYVKGRLHAPKGKDFDDAVAYWKTLQTDEGATFDTVVTLQAEEISPQVTWGTNPGQVISVNDNIPDPASFADPVERASAEKALAYMGLKPGIPLTEVAIDKVFIGSCTNSRIEDLRAAAEIAKGRKVAPGVQALVVPGSGPVKAQAEAEGLDKIFIEAGFEWRLPGCSMCLAMNNDRLNPGERCASTSNRNFEGRQGRGGRTHLVSPAMAAAAAVTGHFADIRNIK
chain 2: MAEKFIKHTGLVVPLDAANVDTDAIIPKQFGQKVTRTGFGAHLFNDWRFLDEKGQQPNPDFVLNFPQYQGASILLARENFGCGSSREHAPWALTDYGFKVVIAPSFADIFYGNSFNNQLLPVKLSDAEVDELFALVKANPGIHFDVDLEAQEVKAGEKTYRFTIDAFRRHCMMNGLDSIGLTLQHDDAIAAYEAKQPAFMN
notes: as for B1
- kcat/Km [3]: 0.56 ± 0 M⁻¹ s⁻¹
- Km [4]: 600 ± 34 µM
- kcat [4]: 0.0461 ± 0.0014 s⁻¹
- kcat/Km [4]: 78.6 ± 5 M⁻¹ s⁻¹

B3: E. coli isopropylmalate isomerase LeuCD complex, Variant 59 (wt LeuC + L31V/H88A-LeuD; parents SEQ ID NO: 1 and SEQ ID NO: 2) (Escherichia coli K-12; H88A/L31V) (protein)
chain 1: MGSSHHHHHHSSGMAKTLYEKLFDAHVVYEAENETPLLYIDRHLVHEVTSPQAFDGLRAHGRPVRQPGKTFATMDHNVSTQTKDINACGEMARIQMQELIKNCKEFGVELYDLNHPYQGIVHVMGPEQGVTLPGMTIVCGDSHTATHGAFGALAFGIGTSEVEHVLATQTLKQGRAKTMKIEVQGKAAPGITAKDIVLAIIGKTGSAGGTGHVVEFCGEAIRDLSMEGRMTLCNMAIEMGAKAGLVAPDETTFNYVKGRLHAPKGKDFDDAVAYWKTLQTDEGATFDTVVTLQAEEISPQVTWGTNPGQVISVNDNIPDPASFADPVERASAEKALAYMGLKPGIPLTEVAIDKVFIGSCTNSRIEDLRAAAEIAKGRKVAPGVQALVVPGSGPVKAQAEAEGLDKIFIEAGFEWRLPGCSMCLAMNNDRLNPGERCASTSNRNFEGRQGRGGRTHLVSPAMAAAAAVTGHFADIRNIK
chain 2: MAEKFIKHTGLVVPLDAANVDTDAIIPKQFVQKVTRTGFGAHLFNDWRFLDEKGQQPNPDFVLNFPQYQGASILLARENFGCGSSREAAPWALTDYGFKVVIAPSFADIFYGNSFNNQLLPVKLSDAEVDELFALVKANPGIHFDVDLEAQEVKAGEKTYRFTIDAFRRHCMMNGLDSIGLTLQHDDAIAAYEAKQPAFMN
notes: as for B1
- Km [5]: 2700 ± 400 µM
- kcat [5]: 0.0606 ± 0.00611 s⁻¹
- kcat/Km [5]: 23.1 ± 3.89 M⁻¹ s⁻¹
- Km [6]: 3800 ± 900 µM
- kcat [6]: 0.0506 ± 0.0103 s⁻¹
- kcat/Km [6]: 13.9 ± 4.44 M⁻¹ s⁻¹

B4: E. coli isopropylmalate isomerase LeuCD complex, Variant 61 (wt LeuC + L31G/H88A-LeuD; parents SEQ ID NO: 1 and SEQ ID NO: 2) (Escherichia coli K-12; H88A/L31G) (protein)
chain 1: MGSSHHHHHHSSGMAKTLYEKLFDAHVVYEAENETPLLYIDRHLVHEVTSPQAFDGLRAHGRPVRQPGKTFATMDHNVSTQTKDINACGEMARIQMQELIKNCKEFGVELYDLNHPYQGIVHVMGPEQGVTLPGMTIVCGDSHTATHGAFGALAFGIGTSEVEHVLATQTLKQGRAKTMKIEVQGKAAPGITAKDIVLAIIGKTGSAGGTGHVVEFCGEAIRDLSMEGRMTLCNMAIEMGAKAGLVAPDETTFNYVKGRLHAPKGKDFDDAVAYWKTLQTDEGATFDTVVTLQAEEISPQVTWGTNPGQVISVNDNIPDPASFADPVERASAEKALAYMGLKPGIPLTEVAIDKVFIGSCTNSRIEDLRAAAEIAKGRKVAPGVQALVVPGSGPVKAQAEAEGLDKIFIEAGFEWRLPGCSMCLAMNNDRLNPGERCASTSNRNFEGRQGRGGRTHLVSPAMAAAAAVTGHFADIRNIK
chain 2: MAEKFIKHTGLVVPLDAANVDTDAIIPKQFGQKVTRTGFGAHLFNDWRFLDEKGQQPNPDFVLNFPQYQGASILLARENFGCGSSREAAPWALTDYGFKVVIAPSFADIFYGNSFNNQLLPVKLSDAEVDELFALVKANPGIHFDVDLEAQEVKAGEKTYRFTIDAFRRHCMMNGLDSIGLTLQHDDAIAAYEAKQPAFMN
notes: as for B1
- kcat/Km [7]: 0.278 ± 0 M⁻¹ s⁻¹
- kcat/Km [8]: 6.11 ± 0.56 M⁻¹ s⁻¹

B5: E. coli isopropylmalate isomerase LeuCD complex, Variant 1 (V35A-LeuC + wt LeuD; parents SEQ ID NO: 1 and SEQ ID NO: 2) (Escherichia coli K-12; V35A) (protein)
chain 1: MGSSHHHHHHSSGMAKTLYEKLFDAHVVYEAENETPLLYIDRHLVHEATSPQAFDGLRAHGRPVRQPGKTFATMDHNVSTQTKDINACGEMARIQMQELIKNCKEFGVELYDLNHPYQGIVHVMGPEQGVTLPGMTIVCGDSHTATHGAFGALAFGIGTSEVEHVLATQTLKQGRAKTMKIEVQGKAAPGITAKDIVLAIIGKTGSAGGTGHVVEFCGEAIRDLSMEGRMTLCNMAIEMGAKAGLVAPDETTFNYVKGRLHAPKGKDFDDAVAYWKTLQTDEGATFDTVVTLQAEEISPQVTWGTNPGQVISVNDNIPDPASFADPVERASAEKALAYMGLKPGIPLTEVAIDKVFIGSCTNSRIEDLRAAAEIAKGRKVAPGVQALVVPGSGPVKAQAEAEGLDKIFIEAGFEWRLPGCSMCLAMNNDRLNPGERCASTSNRNFEGRQGRGGRTHLVSPAMAAAAAVTGHFADIRNIK
chain 2: MAEKFIKHTGLVVPLDAANVDTDAIIPKQFLQKVTRTGFGAHLFNDWRFLDEKGQQPNPDFVLNFPQYQGASILLARENFGCGSSREHAPWALTDYGFKVVIAPSFADIFYGNSFNNQLLPVKLSDAEVDELFALVKANPGIHFDVDLEAQEVKAGEKTYRFTIDAFRRHCMMNGLDSIGLTLQHDDAIAAYEAKQPAFMN
notes: as for B1
- Km [9]: 3900 ± 700 µM
- kcat [9]: 0.151 ± 0.0231 s⁻¹
- kcat/Km [9]: 40.3 ± 9.44 M⁻¹ s⁻¹
- Km [10]: 3350 ± 750 µM
- kcat [10]: 0.0872 ± 0.0153 s⁻¹
- kcat/Km [10]: 27.2 ± 7.78 M⁻¹ s⁻¹

B6: E. coli isopropylmalate isomerase LeuCD complex, Variant 5 (wt LeuC + L31A-LeuD; parents SEQ ID NO: 1 and SEQ ID NO: 2) (Escherichia coli K-12; L31A) (protein)
chain 1: MGSSHHHHHHSSGMAKTLYEKLFDAHVVYEAENETPLLYIDRHLVHEVTSPQAFDGLRAHGRPVRQPGKTFATMDHNVSTQTKDINACGEMARIQMQELIKNCKEFGVELYDLNHPYQGIVHVMGPEQGVTLPGMTIVCGDSHTATHGAFGALAFGIGTSEVEHVLATQTLKQGRAKTMKIEVQGKAAPGITAKDIVLAIIGKTGSAGGTGHVVEFCGEAIRDLSMEGRMTLCNMAIEMGAKAGLVAPDETTFNYVKGRLHAPKGKDFDDAVAYWKTLQTDEGATFDTVVTLQAEEISPQVTWGTNPGQVISVNDNIPDPASFADPVERASAEKALAYMGLKPGIPLTEVAIDKVFIGSCTNSRIEDLRAAAEIAKGRKVAPGVQALVVPGSGPVKAQAEAEGLDKIFIEAGFEWRLPGCSMCLAMNNDRLNPGERCASTSNRNFEGRQGRGGRTHLVSPAMAAAAAVTGHFADIRNIK
chain 2: MAEKFIKHTGLVVPLDAANVDTDAIIPKQFAQKVTRTGFGAHLFNDWRFLDEKGQQPNPDFVLNFPQYQGASILLARENFGCGSSREHAPWALTDYGFKVVIAPSFADIFYGNSFNNQLLPVKLSDAEVDELFALVKANPGIHFDVDLEAQEVKAGEKTYRFTIDAFRRHCMMNGLDSIGLTLQHDDAIAAYEAKQPAFMN
notes: as for B1
- Km [11]: 1310 ± 140 µM
- kcat [11]: 0.3889 ± 0.0214 s⁻¹
- kcat/Km [11]: 299.2 ± 35.8 M⁻¹ s⁻¹
- Km [12]: 1400 ± 600 µM
- kcat [12]: 0.00972 ± 0.0014 s⁻¹
- kcat/Km [12]: 8.06 ± 3.61 M⁻¹ s⁻¹
